To fix the notation:
B1: LINE1-mini (parent)
chain: GGCAGAGCUCAACACAGCGUGGCAAAGUGGCUGUGGCUAGACUGCC

For 167 variants, self-cleavage results are on record in the RNAGym collection of RNA variant scans (doi:10.7554/elife.90254).

This data set covers variants of B1. The experiment in a line: self-cleavage, relative activity (ratio to wild type); higher = more cleavage; in vitro, sequencing; the parent is a self-cleaving ribozyme.
Turning to A4U G29C, the self-cleavage was determined as 0.24.

As for A4U G29A, the self-cleavage is 0.2.

As to A4U G29U, the self-cleavage came out at 0.23.

Turning to A4U G40A, the self-cleavage turned out to be 0.17.

As to A4U G40C, the self-cleavage amounted to 0.07.

On to A4U G40U, for which the self-cleavage was 0.14.

On to G5C G7C, for which the self-cleavage worked out at 0.08.

Turning to G5C G7A, the self-cleavage is 0.22.

On to G5C G7U, for which the self-cleavage came to 0.25.

Turning to A4U A26G, the self-cleavage turned out to be 0.14.

In the case of A4U A26U, the self-cleavage turned out to be 0.2.

A4U A26C: the self-cleavage was 0.14.

On to G5A G44A, for which the self-cleavage was 0.1.

G5A G44C: the self-cleavage was found to be 0.06.

Consider G5A G44U, for which the self-cleavage was determined as 0.07.

On to G5A C45U, for which the self-cleavage stood at 0.12.

As for G5A C45A, the self-cleavage was 0.22.

With G5A C45G, the self-cleavage amounted to 0.14.

Take G5A C42G: the self-cleavage worked out at 0.07.

As for G5A C42A, the self-cleavage turned out to be 0.13.

In the case of G5A C42U, the self-cleavage worked out at 1.53.

In the case of G5A C8A, the self-cleavage is 0.27.

Turning to G5A C8G, the self-cleavage worked out at 0.22.

In the case of G5A C8U, the self-cleavage amounted to 0.44.

Turning to A4U G7U, the self-cleavage was 0.2.

A4U G7A: the self-cleavage stood at 0.31.

In the case of A4U G7C, the self-cleavage was 0.18.

For A4U G30C, the self-cleavage was 0.21.

On to A4U G30A, for which the self-cleavage is 0.42.

For the variant A4U G30U, the self-cleavage was 0.22.

For A4U U32A, the self-cleavage is 0.06.

For A4U U32G, the self-cleavage was determined as 0.14.

Consider A4U U32C, for which the self-cleavage amounted to 0.14.

Regarding G5A G29C, the self-cleavage was 0.07.

With G5A G29U, the self-cleavage stood at 0.13.

Take G5A G29A: the self-cleavage came to 0.1.

On to G5C A39U, for which the self-cleavage amounted to 0.06.

Regarding G5C A39C, the self-cleavage was determined as 0.07.

G5C A39G: the self-cleavage was 0.07.

As for G5A A14U, the self-cleavage turned out to be 0.1.

As for G5A A14C, the self-cleavage is 0.09.

Regarding G5A A14G, the self-cleavage is 0.13.

For G5A G36C, the self-cleavage turned out to be 0.05.

For G5A G36A, the self-cleavage was determined as 0.28.

Take G5A G36U: the self-cleavage worked out at 0.14.

A4U G35U: the self-cleavage is 0.13.

A4U G35A: the self-cleavage came out at 0.14.

For the variant A4U G35C, the self-cleavage came to 0.11.

On to G5C A26U, for which the self-cleavage amounted to 0.06.

For G5C A26G, the self-cleavage stood at 0.05.

For the variant G5C A26C, the self-cleavage was 0.06.

With G5A G40A, the self-cleavage was 0.11.

With G5A G40C, the self-cleavage was 0.04.

With G5A G40U, the self-cleavage was found to be 0.1.

Turning to G5C C8U, the self-cleavage turned out to be 0.11.

Take G5C C8G: the self-cleavage was 0.07.

With G5C C8A, the self-cleavage was 0.18.

Regarding A4U C15A, the self-cleavage was 0.08.

For the variant A4U C15G, the self-cleavage came out at 0.06.

For A4U C15U, the self-cleavage was 0.19.

Turning to G5C A16C, the self-cleavage came to 0.07.

On to G5C A16U, for which the self-cleavage came out at 0.04.

With G5C A16G, the self-cleavage was found to be 0.04.

On to G5A C31G, for which the self-cleavage was 0.05.

In the case of G5A C31U, the self-cleavage worked out at 0.06.

Turning to G5A C31A, the self-cleavage turned out to be 0.08.

For G5A G35U, the self-cleavage was found to be 0.26.

With G5A G35C, the self-cleavage was determined as 0.08.

Regarding G5A G35A, the self-cleavage amounted to 0.1.

Turning to A4U C46A, the self-cleavage is 0.16.

For A4U C46G, the self-cleavage amounted to 0.12.

Regarding A4U C46U, the self-cleavage stood at 0.19.

For the variant G5A U28A, the self-cleavage is 0.12.

For the variant G5A U28C, the self-cleavage turned out to be 0.14.

Take G5A U28G: the self-cleavage amounted to 0.2.

Consider G5A G27U, for which the self-cleavage is 0.08.

Turning to G5A G27A, the self-cleavage worked out at 0.1.

As to G5A G27C, the self-cleavage was 0.07.

Take G5C A14U: the self-cleavage amounted to 0.06.

Turning to G5C A14G, the self-cleavage is 0.04.

Turning to G5C A14C, the self-cleavage turned out to be 0.07.

Turning to A4U C10G, the self-cleavage worked out at 0.06.

Regarding A4U C10U, the self-cleavage stood at 0.19.

In the case of A4U C10A, the self-cleavage was found to be 0.04.

For the variant G5A G30C, the self-cleavage came to 0.12.

For G5A G30A, the self-cleavage worked out at 0.22.

Consider G5A G30U, for which the self-cleavage stood at 0.19.

Regarding G5A A25U, the self-cleavage is 0.12.

Regarding G5A A25C, the self-cleavage was 0.07.

Turning to G5A A25G, the self-cleavage was 0.14.

As to G5A A16U, the self-cleavage was 0.07.

Take G5A A16G: the self-cleavage was 0.07.

For G5A A16C, the self-cleavage is 0.1.

Take A4U A11C: the self-cleavage amounted to 0.04.

In the case of A4U A11U, the self-cleavage came to 0.04.

Take A4U A11G: the self-cleavage stood at 0.04.

Turning to A4U C18U, the self-cleavage was 0.11.

On to A4U C18G, for which the self-cleavage turned out to be 0.08.

On to A4U C18A, for which the self-cleavage amounted to 0.07.

Consider A4U G17U, for which the self-cleavage worked out at 0.16.

A4U G17C: the self-cleavage was determined as 0.06.

For A4U G17A, the self-cleavage amounted to 0.06.

On to G5C C37A, for which the self-cleavage was 0.05.

As to G5C C37U, the self-cleavage stood at 0.09.

As for G5C C37G, the self-cleavage worked out at 0.05.

As to G5C A24C, the self-cleavage was found to be 0.04.

On to G5C A24U, for which the self-cleavage is 0.07.

With G5C A24G, the self-cleavage was determined as 0.06.

Take G5A G19C: the self-cleavage turned out to be 0.06.

As to G5A G19A, the self-cleavage worked out at 0.29.

Turning to G5A G19U, the self-cleavage worked out at 0.11.

For G5C A12U, the self-cleavage worked out at 0.05.

G5C A12C: the self-cleavage was determined as 0.04.

For G5C A12G, the self-cleavage turned out to be 0.05.

In the case of G5C G30A, the self-cleavage was 0.02.

G5A A41C: the self-cleavage was found to be 0.06.

For the variant G5A A41U, the self-cleavage was 0.08.

Consider G5A A41G, for which the self-cleavage is 0.04.

As to A4U C23A, the self-cleavage came out at 0.16.

Consider A4U C23U, for which the self-cleavage is 0.41.

As to A4U C23G, the self-cleavage was found to be 0.37.

For A4U C37U, the self-cleavage is 0.15.

As for A4U C37A, the self-cleavage was 0.16.

In the case of A4U C37G, the self-cleavage is 0.08.

For the variant G5C C18U, the self-cleavage turned out to be 0.03.

For the variant G5C C18A, the self-cleavage turned out to be 0.05.

Take G5C C18G: the self-cleavage was 0.04.

As for G5A G21A, the self-cleavage is 0.25.

For G5A G21U, the self-cleavage is 0.14.

As to G5A G21C, the self-cleavage amounted to 0.13.

Consider G5A C37U, for which the self-cleavage was found to be 0.13.

Turning to G5A C37A, the self-cleavage stood at 0.06.

For G5A C37G, the self-cleavage was found to be 0.05.

Consider A4U G22A, for which the self-cleavage stood at 0.16.

Consider A4U G22U, for which the self-cleavage was 0.52.

Take A4U G22C: the self-cleavage came out at 0.08.

As for G5C G27U, the self-cleavage is 0.09.

As for G5C G27C, the self-cleavage is 0.06.

Turning to G5C G27A, the self-cleavage worked out at 0.05.

For the variant G5A U20A, the self-cleavage stood at 0.13.

In the case of G5A U20C, the self-cleavage is 0.06.

Turning to G5A U20G, the self-cleavage came out at 0.13.

In the case of A4U C8U, the self-cleavage was determined as 0.26.

In the case of A4U C8G, the self-cleavage is 0.09.

For A4U C8A, the self-cleavage worked out at 0.23.

On to G5A C23A, for which the self-cleavage is 0.14.

In the case of G5A C23U, the self-cleavage was found to be 0.14.

As to G5A C23G, the self-cleavage came to 0.29.

For G5C C23U, the self-cleavage was determined as 0.05.

Consider G5C C23A, for which the self-cleavage was found to be 0.07.

For the variant G5C C23G, the self-cleavage came out at 0.04.

In the case of G5A G17C, the self-cleavage worked out at 0.39.

For G5A G17U, the self-cleavage turned out to be 0.11.

G5A G17A: the self-cleavage stood at 0.08.

As to A4U G19C, the self-cleavage amounted to 0.05.

In the case of A4U G19U, the self-cleavage was found to be 0.15.

A4U G19A: the self-cleavage came to 0.68.

In the case of G5A A26C, the self-cleavage is 0.18.

In the case of G5A A26U, the self-cleavage stood at 0.19.

Take G5A A26G: the self-cleavage was found to be 0.1.

For G5A U9G, the self-cleavage turned out to be 0.27.

For the variant G5A U9A, the self-cleavage is 0.35.

Consider G5A U9C, for which the self-cleavage is 0.04.

Consider G5A A6C, for which the self-cleavage amounted to 0.2.

Take G5A A6U: the self-cleavage was 0.12.

In the case of G5A A6G, the self-cleavage is 0.13.

In the case of A4U G27A, the self-cleavage turned out to be 0.19.
